Data as given in patent publication US20210206856A1 (PANDION OPERATIONS, published 2021).

T1: human MAdCAM expressed on cells (human, UniProt Q13477 19-382)
T1 construct: whole, on cells; also called MADCAM1
T1 sequence (looked up): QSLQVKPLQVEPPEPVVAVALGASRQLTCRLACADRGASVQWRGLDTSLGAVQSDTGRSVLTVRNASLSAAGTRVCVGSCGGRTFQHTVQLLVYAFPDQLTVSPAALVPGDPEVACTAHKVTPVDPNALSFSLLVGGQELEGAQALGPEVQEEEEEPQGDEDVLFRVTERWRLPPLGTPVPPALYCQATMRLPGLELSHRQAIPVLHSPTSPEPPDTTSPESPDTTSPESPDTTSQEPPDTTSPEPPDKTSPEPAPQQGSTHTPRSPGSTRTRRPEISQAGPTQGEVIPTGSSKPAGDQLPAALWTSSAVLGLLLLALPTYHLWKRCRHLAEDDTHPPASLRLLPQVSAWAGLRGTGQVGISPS

T2: mouse MAdCAM expressed on cells (mouse, UniProt Q61826 22-405)
T2 construct: whole, on cells
T2 sequence (looked up): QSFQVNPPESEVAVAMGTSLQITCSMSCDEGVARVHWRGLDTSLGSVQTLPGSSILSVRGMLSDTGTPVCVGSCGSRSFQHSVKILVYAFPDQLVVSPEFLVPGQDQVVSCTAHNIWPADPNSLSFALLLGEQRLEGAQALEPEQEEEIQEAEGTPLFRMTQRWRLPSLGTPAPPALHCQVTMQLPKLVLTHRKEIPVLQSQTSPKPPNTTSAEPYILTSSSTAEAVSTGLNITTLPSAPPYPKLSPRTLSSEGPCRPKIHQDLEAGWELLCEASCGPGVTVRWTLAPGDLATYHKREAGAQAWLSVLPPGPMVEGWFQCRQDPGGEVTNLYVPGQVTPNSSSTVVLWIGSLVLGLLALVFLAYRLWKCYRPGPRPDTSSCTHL


Columns and labels:
[1] = molecular target: T1, human MAdCAM expressed on cells; assay: cell binding
[2] = molecular target: T2, mouse MAdCAM expressed on cells; assay: cell binding

Binder | binding result [1] | binding result [2]
MAdCAM Antibody Table 2 Clone 61 (antibody, human IgG1, V domains shown) VH: QVQLVQSGAEVKKPGASVKVSCKASGDTFTGYYIHWVRQAPGQGLEWMGWINPNSGGTNYAQKFQGRVTMTRDTSTSTVYMELSSLRSEDTAVYYCARSGLWLGSYYGMDVWGQGTLVTVSS VL: DIQMTQSPSSLSASVGDRVTITCRASQTISIWLAWYQQKPGKAPKLLIYDASTLQSGVPSRFSGSGSGTDFTLTISSLQPEDFATYYCQQYSSYPLTFGQGTKVEIK | binds | no binding
MAdCAM Antibody Table 2 Clone 62 (antibody, human IgG1, V domains shown) VH: QVQLVQSGAEVKKPGASVKVSCKASGYTFTSYDINWVRQAPGQGLEWMGWINPNSGTTGYAQKFQGRVTMTRDTSTSTVYMELSSLRSEDTAVYYCARSPYYYYGMDVWGQGTTVTVSS VL: DIQMTQSPSSLSASVGDRVTITCRASHFISRWVAWYQQKPGKAPKLLIYAASTLQSGVPSRFSGSGSGTDFTLTISSLQPEDFATYYCQQSYSGISFGPGTKVDIK | binds | no binding
MAdCAM Antibody Table 2 Clone 63 (antibody, human IgG1, V domains shown) VH: EVQLLESGGGLVQPGGSLRLSCAASGFTFNNYGMNWVRQAPGKGLEWVSRINSDGSSTSYADSVKGRFTISRDNSKNTLYLQMNSLRAEDTAVYYCARGAYYYYYMDVWGQGTLVTVSS VL: EIVMTQSPATLSVSPGERATLSCRASQSVSGSYLAWYQQKPGQAPRLLIYATSSRASGIPARFSGSGSGTEFTLTISSLQSEDFAVYYCQQYYSGLTFGQGTKVEIK | binds | no binding
MAdCAM Antibody Table 2 Clone 64 (antibody, human IgG1, V domains shown) VH: EVQLLESGGGLVQPGGSLRLSCAASGFTFSNSDMNWVRQAPGKGLEWVAHIWNDGSQKYYADSVKGRFTISRDNSKNTLYLQMNSLRAEDTAVYYCARDRTDPGYSSAMDVWGQGTTVTVSS VL: DIQMTQSPSSLSASVGDRVTITCRASQDIRNYLGWYQQKPGKAPKLLIYDASSLETGVPSRFSGSGSGTDFTLTISSLQPEDFATYYCQQATSLPLTFGGGTKVEIK | binds | no binding
MAdCAM Antibody Table 2 Clone 66 (antibody, human IgG1, V domains shown) VH: QVQLVQSGAEVKKPGASVKVSCKASGYTFTGHYMHWVRQAPGQGLEWMGIINPSGGSTSYAQKFQGRVTMTRDTSTSTVYMELSSLRSEDTAVYYCARDGAWFGEEYYYGMDVWGQGTTVTVSS VL: DIQMTQSPSSLSASVGDRVTITCRASQGISNWLAWYQQKPGKAPKLLIYDASNLETGVPSRFSGSGSGTDFTLTISSLQPEDFATYYCQQYYSFPLYTFGQGTKVEIK | binds | no binding
MAdCAM Antibody Table 2 Clone 67 (antibody, human IgG1, V domains shown) VH: QVQLVQSGAEVKKPGASVKVSCKASGYTFTGYYMHWVRQAPGQGLEWMGMIYPRDGSTSYAQKFQGRVTMTRDTSTSTVYMELSSLRSEDTAVYYCAMTGWGYGMDVWGKGTTVTVSS VL: DIQMTQSPSSLSASVGDRVTITCRASQGINNYLAWYQQKPGKAPKLLIYDASTLQSGVPSRFSGSGSGTDFTLTISSLQPEDFATYYCQQSYSAPPTFGQGTKLEIK | binds | no binding
MAdCAM Antibody Table 2 Clone 68 (antibody, human IgG1, V domains shown) VH: EVQLLESGGGLVQPGGSLRLSCAASGFTFGDYAMSWVRQAPGKGLEWVAVVSYDGTNKYYADSVKGRFTISRDNSKNTLYLQMNSLRAEDTAVYYCAKDICSSTSCYFDLWGRGTLVTVSS VL: DIQMTQSPSSLSASVGDRVTITCRASQNINNYVNWYQQKPGKAPKLLIYDASNLETGVPSRFSGSGSGTDFTLTISSLQPEDFATYYCQQANSFPPTFGQGTRLEIK | binds | no binding
MAdCAM Antibody Table 2 Clone 69 (antibody, human IgG1, V domains shown) VH: QVQLVQSGAEVKKPGASVKVSCKASGYTFTSYYMHWVRQAPGQGLEWMGIIDPSGGSTSYAQKFQGRVTMTRDTSTSTVYMELSSLRSEDTAVYYCAREEWSSGGVGYFDYWGQGTLVTVSS VL: DIQMTQSPSSLSASVGDRVTITCRASQGISSYLAWYQQKPGKAPKLLIYATSSLQTGVPSRFSGSGSGTDFTLTISSLQPEDFATYYCQQTYSIPITFGQGTRLEIK | binds | no binding
MAdCAM Antibody Table 2 Clone 70 (antibody, human IgG1, V domains shown) VH: QVQLVQSGAEVKKPGASVKVSCKASGYPFTDYYMHWVRQAPGQGLEWMGWIKPNSGDTEYAQKFQGRVTMTRDTSTSTVYMELSSLRSEDTAVYYCARDRFVGKPDYYYYGMDVWGQGTMVTVSS VL: DIQMTQSPSSLSASVGDRVTITCRASQSISVWLAWYQQKPGKAPKLLIYAASSLQSGVPSRFSGSGSGTDFTLTISSLQPEDFATYYCQQSYDTPYTFGQGTKLEIK | binds | no binding
MAdCAM Antibody Table 2 Clone 71 (antibody, human IgG1, V domains shown) VH: QVQLVQSGAEVKKPGASVKVSCKASGYTFTSYYMHWVRQAPGQGLEWMGIINPSGGSTSYAQKFQGRVTMTRDTSTSTVYMELSSLRSEDTAVYYCARDSVAGTGGRYYGMDVWGQGTLVTVSS VL: DIQMTQSPSSLSASVGDRVTITCRASQGISNYFAWYQQKPGKAPKLLIYAASSLQGGVPSRFSGSGSGTDFTLTISSLQPEDFATYYCQQSYSLPYTFGQGTKLEIK | binds | no binding
MAdCAM Antibody Table 2 Clone 72 (antibody, human IgG1, V domains shown) VH: QVQLVQSGAEVKKPGASVKVSCKASGYTFTSYYMHWVRQAPGQGLEWMGVINPIGGTTTYAQKFQGRVTMTRDTSTSTVYMELSSLRSEDTAVYYCASGAPSYYYYGMDVWGQGTLVTVSS VL: DIQMTQSPSSLSASVGDRVTITCRASQSISSYLNWYQQKPGKAPKLLIYGTSYLATGVPSRFSGSGSGTDFTLTISSLQPEDFATYYCQQSYSTPLTFGQGTKVEIK | binds | no binding
MAdCAM Antibody Table 2 Clone 73 (antibody, human IgG1, V domains shown) VH: QVQLVQSGAEVKKPGASVKVSCKASGYTFTSNYVHWVRQAPGQGLEWMGRINPHSGDTSYAQKFQGRVTMTRDTSTSTVYMELSSLRSEDTAVYYCARAGQLWSDWYFDLWGRGTLVTVSS VL: DIQMTQSPSSLSASVGDRVTITCQASQDIRNYLNWYQQKPGKAPKLLIYAATALRTGVPSRFSGSGSGTDFTLTISSLQPEDFATYYCQQSYSHPLTFGQGTKVEIK | binds | no binding
MAdCAM Antibody Table 2 Clone 75 (antibody, human IgG1, V domains shown) VH: EVQLLESGGGLVQPGGSLRLSCAASGFTFSDFWMHWVRQAPGKGLEWISYISGDSGYTNYADSVKGRFTISRDNSKNTLYLQMNSLRAEDTAVYYCARDRPYYYYMDVWGKGTTVTVSS VL: DIQMTQSPSSLSASVGDRVTITCRASQSVSRSLAWYQQKPGKAPKLLIYAASSLQSGVPSRFSGSGSGTDFTLTISSLQPEDFATYYCQQYKSYPVTFGQGTKVEIK | binds | binds
MAdCAM Antibody Table 2 Clone 76 (antibody, human IgG1, V domains shown) VH: EVQLLESGGGLVQPGGSLRLSCAASGFTFDDYTMHWVRQAPGKGLEWVSDISGSGGSTYYADSVKGRFTISRDNSKNTLYLQMNSLRAEDTAVYYCAKDVVVAGTPLHFDYWGQGTLVTVSS VL: DIQMTQSPSSLSASVGDRVTITCQASQDISNYLNWYQQKPGKAPKLLIYAASYLQSGVPSRFSGSGSGTDFTLTISSLQPEDFATYYCQQAHNYPITFGQGTRLEIK | binds | binds
MAdCAM Antibody Table 2 Clone 77 (antibody, human IgG1, V domains shown) VH: EVQLLESGGGLVQPGGSLRLSCAASEFTFSNAWMSWVRQAPGKGLEWVASISSTSAYIDYADSVKGRFTISRDNSKNTLYLQMNSLRAEDTAVYYCAREVVGATTFDYWGQGTLVTVSS VL: DIQMTQSPSSLSASVGDRVTITCRASQSISTWLAWYQQKPGKAPKLLIYAASSLQSGVPSRFSGSGSGTDFTLTISSLQPEDFATYYCQQANAFPPTFGQGTRLEIK | binds | binds
MAdCAM Antibody Table 2 Clone 78 (antibody, V domains shown) VH: QVQLVQSGAEVKKPGSSVKVSCKASGGTFSSYAISWVRQAPGQGLEWMGWMEPHTGNTRYAQKFQGRVTITADESTSTAYMELSSLRSEDTAVYYCAKGGFSWFDPWGQGTLVTVSS VL: not shown | binds | binds
MAdCAM Antibody Table 2 Clone 79 (antibody, human IgG1, V domains shown) VH: EVQLLESGGGLVKPGGSLRLSCAASGFTFDDYAMHWVRQAPGKGLEWVASITSSSAFIDYAASVKGRFTISRDDSKNTLYLQMNSLKTEDTAVYYCARERVDWNSYFDLWGRGTLVTVSS VL: EIVMTQSPATLSVSPGERATLSCRASQGISNSYLAWYQQKPGQAPRLLIYGASTRATGIPARFSGSGSGTEFTLTISSLQSEDFAVYYCQQYYTYPPTFGPGTKVDIK | binds | binds
MAdCAM Antibody Table 2 Clone 80 (antibody, human IgG1, V domains shown) VH: EVQLLESGGGLVQPGGSLRLSCAASGFTFDDYAMHWVRQAPGKGLEWVSAISGSGGSTYYADSVKGRFTISRDNSKNTLYLQMNSLRAEDTAVYYCAKDLGVVVPAALDYWGQGTTVTVSS VL: DIQMTQSPSSLSASVGDRVTITCQASQDISNHLNWYQQKPGKAPKLLIYDASNLEAGVPSRFSGSGSGTDFTLTISSLQPEDFATYYCQQSYSTPLTFGGGTKVEIK | binds | no binding
